The target in one experiment is HLA-A*03:01. Kind of experiment: IEDB peptide-MHC binding, purified MHC/direct/fluorescence; filed as Kd, often an IC50 or EC50 that approximates it; ≥ and ≤ were set here for values at or beyond the usual limits of such assays.
For a further experiment, the target named is HLA-B*08:01. The experiment is described as above.
Another experiment deals with HLA-B*44:02. Described as above.
Another experiment has as its target HLA-B*27:05. The description is as above.
A further experiment concerns the target HLA-B*40:01. Described as above.
For the next experiment, the target named is HLA-A*69:01. Described as above.
Another experiment deals with HLA-B*58:01. The experiment is described as above.
In the next experiment the target is HLA-A*31:01. Described as above.
The target of a further experiment is HLA-B*15:01. Described as above.
The target of a further experiment is HLA-A*11:01. Described as above.
The next experiment concerns the target HLA-B*07:02. The experiment is described as above.
The next experiment deals with HLA-A*01:01. The description is as above.
In experiment [1] the target is HLA-A*26:01. Described as above.
A further experiment addresses HLA-B*83:01. Kind of experiment: IEDB peptide-MHC binding, purified MHC/competitive/fluorescence; filed as Kd, often an IC50 or EC50 that approximates it; ≥ and ≤ were set here for values at or beyond the usual limits of such assays. To be noted: source organism: Giardia lamblia ATCC 50803.
The target of a further experiment is HLA-B*15:42. Described as above. To be noted: source organism: Giardia lamblia ATCC 50803.
A further experiment deals with HLA-B*45:06. Described as above. To be noted: source organism: Giardia lamblia ATCC 50803.
Another experiment concerns the target HLA-C*03:03. Kind of experiment: IEDB peptide-MHC binding, purified MHC/direct/fluorescence; filed as Kd, often an IC50 or EC50 that approximates it; ≥ and ≤ were set here for values at or beyond the usual limits of such assays.
For experiment [2], the target named is HLA-A*24:03. The experiment can be described thus: IEDB peptide-MHC binding, purified MHC/competitive/fluorescence; filed as Kd, often an IC50 or EC50 that approximates it; ≥ and ≤ were set here for values at or beyond the usual limits of such assays. To be noted: source organism: Bacillus anthracis str. A2012.
The target in another experiment is HLA-C*07:02. Kind of experiment: IEDB peptide-MHC binding, purified MHC/direct/fluorescence; filed as Kd, often an IC50 or EC50 that approximates it; ≥ and ≤ were set here for values at or beyond the usual limits of such assays. To be noted: source organism: SARS-CoV1.
A further experiment addresses HLA-B*54:01. Kind of experiment: IEDB peptide-MHC binding, purified MHC/competitive/radioactivity; filed as Kd, often an IC50 or EC50 that approximates it; ≥ and ≤ were set here for values at or beyond the usual limits of such assays. To be noted: source organism: SARS coronavirus Tor2.
The target in the next experiment is HLA-B*51:01. The description is as above. To be noted: source organism: SARS coronavirus Tor2.
Experiment [3] has as its target HLA-B*35:01. The description is as above. To be noted: source organism: SARS coronavirus Tor2.
The target in another experiment is HLA-B*53:01. Described as above. To be noted: source organism: SARS coronavirus Tor2.
In experiment [4] the target is HLA-A*24:03. Kind of experiment: IEDB peptide-MHC binding, purified MHC/direct/fluorescence; filed as Kd, often an IC50 or EC50 that approximates it; ≥ and ≤ were set here for values at or beyond the usual limits of such assays.
A further experiment concerns the target HLA-A*02:01. Described as above.
For experiment [5], the target named is HLA-B*35:01. Described as above. To be noted: source organism: Escherichia coli O157:H7.
A further experiment has as its target HLA-A*30:01. The description is as above.
The target in a further experiment is HLA-B*48:01. The description is as above. To be noted: source organism: West Nile virus.
For another experiment, the target named is HLA-B*18:01. Described as above. To be noted: source organism: West Nile virus.
The target of another experiment is HLA-B*57:01. The description is as above. To be noted: source organism: West Nile virus.
Another experiment deals with HLA-B*46:01. The description is as above. To be noted: source organism: West Nile virus.
For the next experiment, the target named is HLA-B*39:01. The experiment can be described thus: IEDB peptide-MHC binding, purified MHC/competitive/fluorescence; filed as Kd, often an IC50 or EC50 that approximates it; ≥ and ≤ were set here for values at or beyond the usual limits of such assays. To be noted: source organism: West Nile virus.
For experiment [6], the target named is HLA-A*26:01. Described as above. To be noted: source organism: West Nile virus.
Setting [7] is: source organism: Giardia lamblia ATCC 50803.
Where [8] appears, read: source organism: Escherichia coli O157:H7.
Setting [9] is: source organism: Brucella abortus 2308.
Setting [10] is: source organism: West Nile virus.
[11] abbreviates: source organism: Pseudomonas putida.
Setting [12] is: source organism: Pseudomonas aeruginosa.
Where [13] appears, read: source organism: Yellow fever virus.

Broadly, the Kd is the equilibrium constant for the complex coming apart. Take AEFPVGSTA: the Kd was at least 20 µM with HLA-A*03:01 (setting [7]); at least 20 µM in the experiment with HLA-B*08:01 (setting [7]); at least 20 µM with HLA-B*44:02 (setting [7]); at least 20 µM with HLA-B*27:05 (setting [7]); 0.41 µM in the experiment with HLA-B*40:01 (setting [7]); at least 20 µM with HLA-A*69:01 (setting [7]). In addition, the Kd with HLA-B*58:01 (setting [7]), with HLA-A*31:01 (setting [7]), in the experiment with HLA-B*15:01 (setting [7]), with HLA-A*11:01 (setting [7]), with HLA-B*07:02 (setting [7]) and with HLA-A*01:01 (setting [7]) was at least 20 µM throughout. Moreover, the Kd with HLA-A*26:01 [1] (setting [7]) was at least 20 µM; in the experiment with HLA-B*83:01 it was at least 5 µM; with HLA-B*15:42, at least 5 µM; in the experiment with HLA-B*45:06, at least 5 µM.

Sequence FAKPAGTPM yielded a Kd in the experiment with HLA-C*03:03 (source organism: Burkholderia cenocepacia HI2424) of at most 0.001 µM.

As for FFSPVIASL, the dissociation constant (Kd) was at most 0.001 µM in the experiment with HLA-C*03:03 (source organism: Bacillus anthracis str. A2012) and at most 0.0001 µM in the experiment with HLA-A*24:03 [2].

Take FPREGVFVF: the Kd is 0.116 µM with HLA-B*08:01 (source organism: SARS-CoV1); 0.51 µM with HLA-C*07:02; 2.14 µM with HLA-B*15:01 (source organism: SARS-CoV1); 0.131 µM with HLA-B*07:02 (source organism: SARS-CoV1); 0.0925 µM with HLA-B*54:01; 0.0314 µM with HLA-B*51:01. In addition, the Kd worked out at 0.000684 µM with HLA-B*35:01 [3] and 0.00536 µM with HLA-B*53:01.

For ITAGYNRYY, the Kd was 3.25 µM with HLA-A*03:01 (setting [8]); at least 20 µM with HLA-A*24:03 [4] (setting [8]); at least 20 µM with HLA-B*08:01 (setting [8]); at least 20 µM with HLA-A*02:01 (setting [8]); at least 20 µM in the experiment with HLA-B*44:02 (setting [8]); at least 20 µM with HLA-B*27:05 (setting [8]). Moreover, the Kd with HLA-B*40:01 (setting [8]) is at least 20 µM; with HLA-B*35:01 [5], 0.861 µM; in the experiment with HLA-A*69:01 (setting [8]), at least 20 µM; with HLA-B*58:01 (setting [8]) it was 4.05 µM; with HLA-A*31:01 (setting [8]), at least 20 µM; with HLA-B*15:01 (setting [8]), 0.108 µM. The Kd with HLA-A*11:01 (setting [8]) is 2.56 µM; with HLA-B*07:02 (setting [8]), at least 20 µM; in the experiment with HLA-A*01:01 (setting [8]) it was 0.535 µM; with HLA-A*26:01 [1] (setting [8]), 0.205 µM; with HLA-A*30:01 (setting [8]) it was 2.13 µM.

For KQLEYSWVL, the results for the Kd with HLA-A*02:01 (setting [9]), in the experiment with HLA-A*69:01 (setting [9]) and with HLA-C*03:03 (source organism: Brucella canis ATCC 23365) were 0.0017 µM, 0.846 µM and at least 20 µM, respectively.

With LYAVTTAVL, the Kd with HLA-A*03:01 (setting [10]), with HLA-B*48:01, with HLA-B*18:01, with HLA-B*57:01, with HLA-B*44:02 (setting [10]) and in the experiment with HLA-B*27:05 (setting [10]) was at least 20 µM in each case. In addition, the Kd in the experiment with HLA-B*46:01, in the experiment with HLA-B*40:01 (setting [10]), with HLA-A*69:01 (setting [10]), with HLA-B*58:01 (setting [10]), with HLA-A*31:01 (setting [10]) and in the experiment with HLA-B*15:01 (setting [10]) was at least 20 µM throughout. The Kd is at least 20 µM with HLA-A*01:01 (setting [10]), at least 20 µM in the experiment with HLA-A*30:01 (source organism: West Nile virus strain PTRoxo), 0.459 µM with HLA-B*39:01 and at least 20 µM with HLA-A*26:01 [6].

With NWDWGVFFK, the Kd with HLA-A*03:01 (setting [11]), in the experiment with HLA-A*24:03 [4] (setting [11]), in the experiment with HLA-B*08:01 (setting [11]), with HLA-A*02:01 (setting [11]), with HLA-B*27:05 (setting [11]) and in the experiment with HLA-B*40:01 (setting [11]) was at least 20 µM in each case. In addition, the Kd in the experiment with HLA-A*69:01 (setting [11]) was at least 20 µM; with HLA-B*58:01 (setting [11]), at least 20 µM; with HLA-B*15:01 (setting [11]) it was at least 20 µM; with HLA-A*11:01 (setting [12]), 0.0673 µM; with HLA-B*07:02 (setting [11]), at least 20 µM; with HLA-A*01:01 (setting [11]), at least 20 µM. Further, the values for the Kd in the experiment with HLA-A*26:01 [1] (setting [11]) and with HLA-A*30:01 (setting [12]) were at least 20 µM and 2.1 µM, respectively.

For TTIEDILPK, the Kd was 2.84 µM with HLA-A*03:01 (setting [7]); at least 20 µM with HLA-A*24:03 [4] (setting [7]); at least 20 µM in the experiment with HLA-B*08:01 (setting [7]); at least 20 µM with HLA-A*02:01 (setting [7]); at least 20 µM in the experiment with HLA-B*44:02 (setting [7]); at least 20 µM in the experiment with HLA-B*27:05 (setting [7]). Further, the Kd was at least 20 µM with HLA-B*40:01 (setting [7]); at least 20 µM with HLA-A*69:01 (setting [7]); at least 20 µM with HLA-B*58:01 (setting [7]); 2.09 µM with HLA-A*31:01 (setting [7]); at least 20 µM with HLA-B*15:01 (setting [7]); 0.0092 µM in the experiment with HLA-A*11:01 (setting [7]). The Kd with HLA-B*07:02 (setting [7]) is at least 20 µM; with HLA-A*01:01 (setting [7]), at least 20 µM; with HLA-A*26:01 [1] (setting [7]), 0.478 µM; with HLA-A*30:01 (setting [7]), 0.471 µM.

With YLIIGILTL, the values for the Kd with HLA-A*69:01 (setting [13]) and with HLA-C*03:03 (setting [13]) were at least 20 µM and 0.018 µM, respectively.

The values above are taken from the Immune Epitope Database (IEDB).
